For 5 molecules, Kd results are on record in publication PMC4240464.

Assay [1] addresses Evasin-4–Fc (Rhipicephalus sanguineus). Description: SPR.
The target of assay [2] is Fc–Evasin-4 (Rhipicephalus sanguineus). Description: SPR.

In general, Kd refers to the constant that tells how readily two partners part at equilibrium. Lower therefore signals a tighter complex.

B1: CCL1 (ligand)
chain: KSMQVPFSRCCFSFAEQEIPLRAILCYRNTSSICSNEGLIFKLKRGKEACALDTVGWVQRHRKMLRHCPSKRK
With B1, the dissociation constant Kd was determined as 0.097 nM in assay [1] and 0.276 nM in assay [2].

B2: CCL18 (ligand)
chain: AQVGTNKELCCLVYTSWQIPQKFIVDYSETSPQCPKPGVILLTKRGRQICADPNKKWVQKYISDLKLNA
Consider B2, for which the Kd amounted to 3.63 nM in assay [1] and 0.083 nM in assay [2].

B3: CCL24 (ligand)
chain: VVIPSPCCMFFVSKRIPENRVVSYQLSSRSTCLKAGVIFTTKKGQQFCGDPKQEWVQRYMKNLDAKQKKASPRARAVAVKGPVQRYPGNQTTC
For B3, the Kd in assay [1] worked out at 708 nM; in assay [2] it was 4.84 nM.

B4: CCL23 (ligand)
chain: RVTKDAETEFMMSKLPLENPVLLDRFHATSADCCISYTPRSIPCSLLESYFETNSECSKPGVIFLTKKGRRFCANPSDKQVQVCMRMLKLDTRIKTRKN
Regarding B4, the figures for the Kd in assay [1] and in assay [2] were 0.232 nM and 0.124 nM, respectively.

B5: CCL15 (ligand)
chain: QFTNDAETELMMSKLPLENPVVLNSFHFAADCCTSYISQSIPCSLMKSYFETSSECSKPGVIFLTKKGRQVCAKPSGPGVQDCMKKLKPYSI
Turning to B5, the figures for the Kd in assay [1] and in assay [2] were 0.016 nM and 0.04 nM, respectively.
